B1: C1015 (antibody, V domains shown)
VH: QVQLQESGPRLVKPSGSLSLTCAVSGGSLSSSNWWNWVRQSPEKGLEWIGEIFHSGSTYYNPSLKSRVTISVDKSKNHFSLNLRSVTAADTAVYYCAGSYSNYIGGVWFDPWGQGTLVTVSS
VL: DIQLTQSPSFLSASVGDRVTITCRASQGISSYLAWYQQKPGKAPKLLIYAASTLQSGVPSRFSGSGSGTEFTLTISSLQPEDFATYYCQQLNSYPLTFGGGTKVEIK
notes: source: recombinant, purified
B2: C841 (antibody, V domains shown)
VH: EVQLVESGGGLVQPGGSLRLSCAASGFTFSIFSMNWVRQAPGKGLEWISYISSSSGSRHYADSVKGRFTISRDNAKNSLYLQMNNLRDEDTAMYYCAREAHDGALTGYGDYLNWFDPWGQGVLVTVSS
VL: SYELTQPPSVSVAPGKTARIPCGGDSVGSKSVHWYQQKSGQAPVLVIHSDSDRPSGIPERFSGSNSGNTATLTITGVAAGDEADYYCHVWDTIGDRFYWVFGGGTKLTVL
notes: source: recombinant, purified
B3: C581 (antibody, V domains shown)
VH: EVQLVQSGAEVKKPGESLKISCKGSGYRFTSYWIAWVRQMPGKGLEWMGIIYPGDSDTRYSPSFQGQVTISADQSISTAYLQWSSLKASDTAMYYCARGGPPGGVKLELTDYWGQGALVTVSS
VL: not shown
notes: source: recombinant, purified
B4: C908 (antibody, V domains shown)
VH: EVQLVQSGAEVKKPGESLKISCKASGYSFTIYWIGWVRQMPGKGLEWMGIIYPGESETRYSPSFQGQVTISADKSISTAYLQWRSLKASDTAMYYCARGGPPGGVKLELTDYWGQGTLVTVSS
VL: not shown
notes: source: recombinant, purified
B5: C960 (antibody, V domains shown)
VH: QVQLVESGGGVVQPGRSLTLSCTASGFTFNRFAMFWVRQAPGKGLEWVAVISFDGSYEHYAESVKGRFAIFRDNPKNTLYLQMNSLRAEDTAVYYCAKSPINYCANGVCYPDSWGQGTLVTVSS
VL: NFMLTQPHSVSESPGKTVTISCTGSSGSIANNYVQWYQQRPGSAPTTVIFEDTQRPSGVPDRFSGSIDSSSNSASLNISGLKPEDEADYYCQSFDVNSRWVFGGGTKLTVL
notes: source: recombinant, purified
B6: C936 (antibody, V domains shown)
VH: EVQLVESGGGLIQPGGSLRLSCAASGFTVSSNYMSWVRQAPGKGLEWVSVIYSGGSTFYADSVKGRFTISRDNSKNTLYLQMNSLRAEDTAVYYCARDLGTGLFDYWGQGTLVTVSS
VL: DIQLTQSPSFLSASVGDRVTITCRASQGISSYLAWYQQKPGKAPKLLIYAASTLQSGVPSRFSGSGSGTEFTLTISSLQPEDFATYYCQQLDSYPPGTFGPGTKVDIK
notes: source: recombinant, purified
B7: C1010 (antibody, V domains shown)
VH: QVQLVESGGGVVQPGRSLRLSCAASGFTFSSYAMHWVRQAPGKGLEWVAVISYDGSNKYYADSVKGRFTISRDNSKNTLYLQMNSLRAEDTAVYYCAKKGQPYCGGDCYFYYFDYWGQGTLVTVSS
VL: DIQMTQSPSSLSASLGDRVTITCQASQDISNYLNWYQQKPGKAPKLLIYDASNLETGVPSRFSGSGSGTDFTFTISSLQPEDIATYYCQQYDNLPPITFGQGTRLEIK
notes: source: recombinant, purified
B8: C1011 (antibody, V domains shown)
VH: QVQLVESGGGVVQPGRSLRLSCAVSGFTFSHYAMHWVRQAPGKGLEWVAVISYDGADKYYADSVRGRFTIARDNSKNTLFLQMSSLRPEDTAVYYCAKKGQPYCGGDCHFYYLDYWGQGTLVTVSS
VL: DIQMTQSPSSLSASVGDRVTITCQASQDISNHLNWYQQKPGKAPKLLIYDASNLETGVPSRFSGSGSGTDFTFTISSLQAEDIATYYCQQYDNLPPITFGQGTRLEIK
notes: source: recombinant, purified
B9: C916 (antibody, V domains shown)
VH: EVQLVESGGGLVQPGGSLRLSCAASGFTFSNYDMHWVRQATGRGLEWVSTIGTAGDTYYPGSVKGRFTISRENAKNSLYLQMNSLRAGDTALYYCARVRYDSSGYFWSLDYWGQGTLVTVSS
VL: not shown
notes: source: recombinant, purified
B10: C917 (antibody, V domains shown)
VH: EVQLVESGGGLVQPGGSLRLSCAASGFTFSNYDMHWVRQATGKGLDWVSTIGTAGDTYYPGSVKGRFTISRENAKNSLYLQMNSLRAGDTAVYYCARVRFDTSGYFWSLDYWGQGTLVTVSS
VL: not shown
notes: source: recombinant, purified

The first assay concerns the target T1, SARS-CoV-2 receptor binding domain (RBD) (SARS-CoV-2, GenBank MN985325.1 …, UniProt P0DTC2). In words: ELISA. Conditions: both partners purified. Background: In an ELISA, binding on a coated surface is turned into a signal by an enzyme label.
On to B1, for which the binding result was “no binding (tested: >1000 ng/ml)”.

The next assay concerns the target T1, SARS-CoV-2 receptor binding domain (RBD). In words: BLI. Conditions: both partners purified.
B2: the affinity, expressed as Kd, was 6.08 nM.

In the case of B3, the dissociation constant Kd (as a rule, a measure of binding affinity in units of concentration) was 0.0725 nM. On the same count and under the same terms, the same measure for B4: 0.00384 nM.

B5 showed a dissociation constant Kd of 1.5 nM. In turn, B6 registered a Kd of 157 nM. Same read-out and setting: the result for B7 reads 16.3 nM; that for B8, 0.0121 nM; that for B9, 2.92 nM. Still for that read-out and setting: the result for B10 reads 0.999 nM.
